Test results from patent publication US20230174628A1 (PEKING UNIVERSITY, published 2023).

B1: antigen-binding unit ABU-190 (antibody, V domains shown)
VH: EVQLVESGGGLIQPGGSLRLSCAASGITVSSNYMSWVRQAPGKGLEWVSVIYSGGSTDYADSVKGRFTISRDKSKNTLYLQMNSLRAEDTAVYYCARDLGEAGGMDVWGQGTTVTVSS
VL: AIQLTQSPSSLSASVGDRVTITCRASQGISSYLAWYQQKPGKAPKLLIYAASTLQSGVPSRFSGSGSGTDFTLTISSLQPEDFATYYCQQLNSYPPAFGGGTKVEIK
B2: antigen-binding unit ABU-174 (antibody, V domains shown)
VH: QVQLQQWGAGLLKPSETLSLTCAVYGGSFSDYYWNWIRRPPGKGLEWIGEITHSGSTNYNPSLKSRVTISVDTSKNQFSLKLSSVTAADTAVYYCARGQGYGRVLLWFGEWGQGTLVTVSS
VL: EIVLTQSPATLSLSPGERATLSCRASQSVSTYLAWYQQKPGQAPRLLIYDASNRATGIPARFSGSGSGTDFTLTISSLEPEDFAVYYCQQRSNWITFGQGTRLEIK

Target: S protein (Spike) of the novel coronavirus SARS-CoV-2 (SARS-CoV-2, UniProt P0DTC2 14-1273)
Assay: cell-based or functional assay

Row | Binder | IC50, PRNT with SARS-CoV-2 euvirus on Vero E6 cells | IC50, neutralization of SARS-CoV-2 pseudovirus (Huh-7 cells, luciferase)
1 | B1 | 0.8 µg/mL | 0.039 µg/mL
2 | B2 | 0.5 µg/mL | 0.026 µg/mL
